The text below walks through data of the supplement of paper PMC5998384.

The test system of data set [1] is HeLa Kyoto. The experiment in a line: solubility in G1/S (NP-40 vs SDS abundance) (log2 ratio); higher = more soluble. To be noted: cell cycle stage: G1/S.
The subject of data set [2] is HeLa Kyoto. Nature of the data set: melting temperature (median over replicates), in situ; higher = more thermally stable.
Data set [3] concerns HeLa Kyoto. Nature of the data set: solubility change mitosis vs G1/S (difference of NP-40 vs SDS log2 ratios) (log2 ratio difference); higher = more soluble in mitosis.
The test system of data set [4] is HeLa Kyoto. The experiment in a line: thermal stability score vs G1/S (z-score of summed log2 fold changes over temperatures); higher = more thermally stable than in G1/S.
Setting [5] is: cell cycle stage: early G1 (4.5 h after nocodazole release).
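Throughout, for melting temperature (median over replicates), in situ: HeLa Kyoto cells synchronized by double thymidine or nocodazole block, proteins quantified by TMT10plex mass spectrometry, three independent biological replicates.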
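Throughout, for solubility change mitosis vs G1/S (difference of NP-40 vs SDS log2 ratios): synchronized HeLa Kyoto cells (double thymidine block for G1/S, nocodazole release for mitosis), protein amounts in NP-40 versus SDS lysates quantified by mass spectrometry, three biological replicates.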
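Throughout, for solubility in G1/S (NP-40 vs SDS abundance): HeLa Kyoto cells arrested at G1/S by double thymidine block, proteins quantified by TMT10plex mass spectrometry in mild NP-40 versus SDS extracts, three biological replicates.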
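Throughout, for thermal stability score vs G1/S (z-score of summed log2 fold changes over temperatures): synchronized HeLa Kyoto cells, proteins quantified by TMT10plex mass spectrometry, three biological replicates, mitosis taken 0.5 h after nocodazole release, G1/S directly after double thymidine block.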

With “MPVRGDRGFPPRRELSGWLRAPGMEELIWEQYTVTLQKDSKRGFGIAVSGGRDNPHFENGETSIVISDVLPGGPADGLLQENDRVVMVNGTPMEDVLHSFAVQQLRKSGKVAAIVVKRPRKVQVAALQASPPLDQDDRAFEVMDEFDGRSFRSGYSERSRLNSHGGRSRSWEDSPERGRPHERARSRERDLSRDRSRGRSLERGLDQDHARTRDRSRGRSLERGLDHDFGPSRDRDRDRSRGRSIDQDYERAYHRAYDPDYERAYSPEYRRGARHDARSRGPRSRSREHPHSRSPSPEPRGRPGPIGVLLMKSRANEEYGLRLGSQIFVKEMTRTGLATKDGNLHEGDIILKINGTVTENMSLTDARKLIEKSRGKLQLVVLRDSQQTLINIPSLNDSDSEIEDISEIESNRSFSPEERRHQYSDYDYHSSSEKLKERPSSREDTPSRLSRMGATPTPFKSTGDIAGTVVPETNKEPRYQEDPPAPQPKAAPRTFLRPSPEDEAIYGPNTKMVRFKKGDSVGLRLAGGNDVGIFVAGIQEGTSAEQEGLQEGDQILKVNTQDFRGLVREDAVLYLLEIPKGEMVTILAQSRADVYRDILACGRGDSFFIRSHFECEKETPQSLAFTRGEVFRVVDTLYDGKLGNWLAVRIGNELEKGLIPNKSRAEQMASVQNAQRDNAGDRADFWRMRGQRSGVKKNLRKSREDLTAVVSVSTKFPAYERVLLREAGFKRPVVLFGPIADIAMEKLANELPDWFQTAKTEPKDAGSEKSTGVVRLNTVRQIIEQDKHALLDVTPKAVDLLNYTQWFPIVIFFNPDSRQGVKTMRQRLNPTSNKSSRKLFDQANKLKKTCAHLFTATINLNSANDSWFGSLKDTIQHQQGEAVWVSEGKMEGMDDDPEDRMSYLTAMGADYLSCDSRLISDFEDTDGEGGAYTDNELDEPAEEPLVSSITRSSEPVQHEESIRKPSPEPRAQMRRAASSDQLRDNSPPPAFKPEPPKAKTQNKEESYDFSKSYEYKSNPSAVAGNETPGASTKGYPPPVAAKPTFGRSILKPSTPIPPQEGEEVGESSEEQDNAPKSVLGKVKIFEKMDHKARLQRMQELQEAQNARIEIAQKHPDIYAVPIKTHKPDPGTPQHTSSRPPEPQKAPSRPYQDTRGSYGSDAEEEEYRQQLSEHSKRGYYGQSARYRDTEL [TJP2]”, the “solubility in G1/S (log2)” value in the data set with HeLa Kyoto [1] was -0.246. In addition, the values for the melting temperature with HeLa Kyoto [2] (cell cycle stage: G1/S) and in the data set on HeLa Kyoto [2] (cell cycle stage: mitosis) were 48.1 °C and 49.2 °C, respectively. Moreover, the “solubility change mitosis (log2)” value with HeLa Kyoto [3] is 0.000921. Besides, the thermal stability score stood at 1 in the data set on HeLa Kyoto [4] (setting [5]) and 2.91 with HeLa Kyoto [4] (cell cycle stage: mitosis).
In the case of “MSSARFDSSDRSAWYMGPVSRQEAQTRLQGQRHGMFLVRDSSTCPGDYVLSVSENSRVSHYIINSLPNRRFKIGDQEFDHLPALLEFYKIHYLDTTTLIEPAPRYPSPPMGSVSAPNLPTAEDNLEYVRTLYDFPGNDAEDLPFKKGEILVIIEKPEEQWWSARNKDGRVGMIPVPYVEKLVRSSPHGKHGNRNSNSYGIPEPAHAYAQPQTTTPLPAVSGSPGAAITPLPSTQNGPVFAKAIQKRVPCAYDKTALALEVGDIVKVTRMNINGQWEGEVNGRKGLFPFTHVKIFDPQNPDENE [CRKL]”, in the data set on HeLa Kyoto [1], the “solubility in G1/S (log2)” value is 0.543. Also, the melting temperature in the data set with HeLa Kyoto [2] (cell cycle stage: G1/S) was 53 °C; in the data set with HeLa Kyoto [2] (cell cycle stage: mitosis), 53.4 °C. Also, the “solubility change mitosis (log2)” value with HeLa Kyoto [3] came to 0.0605. The thermal stability score was -0.327 in the data set on HeLa Kyoto [4] (setting [5]) and -0.418 in the data set with HeLa Kyoto [4] (cell cycle stage: mitosis).
In the case of “MAAAKVALTKRADPAELRTIFLKYASIEKNGEFFMSPNDFVTRYLNIFGESQPNPKTVELLSGVVDQTKDGLISFQEFVAFESVLCAPDALFMVAFQLFDKAGKGEVTFEDVKQVFGQTTIHQHIPFNWDSEFVQLHFGKERKRHLTYAEFTQFLLEIQLEHAKQAFVQRDNARTGRVTAIDFRDIMVTIRPHVLTPFVEECLVAAAGGTTSHQVSFSYFNGFNSLLNNMELIRKIYSTLAGTRKDVEVTKEEFVLAAQKFGQVTPMEVDILFQLADLYEPRGRMTLADIERIAPLEEGTLPFNLAEAQRQKASGDSARPVLLQVAESAYRFGLGSVAGAVGATAVYPIDLVKTRMQNQRSTGSFVGELMYKNSFDCFKKVLRYEGFFGLYRGLLPQLLGVAPEKAIKLTVNDFVRDKFMHKDGSVPLAAEILAGGCAGGSQVIFTNPLEIVKIRLQVAGEITTGPRVSALSVVRDLGFFGIYKGAKACFLRDIPFSAIYFPCYAHVKASFANEDGQVSPGSLLLAGAIAGMPAASLVTPADVIKTRLQVAARAGQTTYSGVIDCFRKILREEGPKALWKGAGARVFRSSPQFGVTLLTYELLQRWFYIDFGGVKPMGSEPVPKSRINLPAPNPDHVGGYKLAVATFAGIENKFGLYLPLFKPSVSTSKAIGGGP [SLC25A13]”, the “solubility in G1/S (log2)” value in the data set with HeLa Kyoto [1] stood at 0.0358. Moreover, the melting temperature in the data set with HeLa Kyoto [2] (cell cycle stage: G1/S) and in the data set on HeLa Kyoto [2] (cell cycle stage: mitosis) was 55.3 °C throughout. In addition, in the data set on HeLa Kyoto [3], the “solubility change mitosis (log2)” value is -0.142. Besides, the thermal stability score in the data set with HeLa Kyoto [4] (setting [5]) is -1.62; with HeLa Kyoto [4] (cell cycle stage: mitosis) it was -1.29.
As for “MASGEHSPGSGAARRPLHSAQAVDVASASNFRAFELLHLHLDLRAEFGPPGPGAGSRGLSGTAVLDLRCLEPEGAAELRLDSHPCLEVTAAALRRERPGSEEPPAEPVSFYTQPFSHYGQALCVSFPQPCRAAERLQVLLTYRVGEGPGVCWLAPEQTAGKKKPFVYTQGQAVLNRAFFPCFDTPAVKYKYSALIEVPDGFTAVMSASTWEKRGPNKFFFQMCQPIPSYLIALAIGDLVSAEVGPRSRVWAEPCLIDAAKEEYNGVIEEFLATGEKLFGPYVWGRYDLLFMPPSFPFGGMENPCLTFVTPCLLAGDRSLADVIIHEISHSWFGNLVTNANWGEFWLNEGFTMYAQRRISTILFGAAYTCLEAATGRALLRQHMDITGEENPLNKLRVKIEPGVDPDDTYNETPYEKGFCFVSYLAHLVGDQDQFDSFLKAYVHEFKFRSILADDFLDFYLEYFPELKKKRVDIIPGFEFDRWLNTPGWPPYLPDLSPGDSLMKPAEELAQLWAAEELDMKAIEAVAISPWKTYQLVYFLDKILQKSPLPPGNVKKLGDTYPSISNARNAELRLRWGQIVLKNDHQEDFWKVKEFLHNQGKQKYTLPLYHAMMGGSEVAQTLAKETFASTASQLHSNVVNYVQQIVAPKGS [RNPEP]”, the “solubility in G1/S (log2)” value in the data set on HeLa Kyoto [1] was 0.182. Moreover, the results for the melting temperature in the data set with HeLa Kyoto [2] (cell cycle stage: G1/S) and in the data set on HeLa Kyoto [2] (cell cycle stage: mitosis) were 50.1 °C and 50.3 °C, respectively. The “solubility change mitosis (log2)” value in the data set with HeLa Kyoto [3] is -0.179. Further, the figures for the thermal stability score with HeLa Kyoto [4] (setting [5]) and with HeLa Kyoto [4] (cell cycle stage: mitosis) were 1.06 and 1.25, respectively.
Take “MAGVEEVAASGSHLNGDLDPDDREEGAASTAEEAAKKKRRKKKKSKGPSAAGEQEPDKESGASVDEVARQLERSALEDKERDEDDEDGDGDGDGATGKKKKKKKKKRGPKVQTDPPSVPICDLYPNGVFPKGQECEYPPTQDGRTAAWRTTSEEKKALDQASEEIWNDFREAAEAHRQVRKYVMSWIKPGMTMIEICEKLEDCSRKLIKENGLNAGLAFPTGCSLNNCAAHYTPNAGDTTVLQYDDICKIDFGTHISGRIIDCAFTVTFNPKYDTLLKAVKDATNTGIKCAGIDVRLCDVGEAIQEVMESYEVEIDGKTYQVKPIRNLNGHSIGQYRIHAGKTVPIVKGGEATRMEEGEVYAIETFGSTGKGVVHDDMECSHYMKNFDVGHVPIRLPRTKHLLNVINENFGTLAFCRRWLDRLGESKYLMALKNLCDLGIVDPYPPLCDIKGSYTAQFEHTILLRPTCKEVVSRGDDY [METAP2]”: the “solubility in G1/S (log2)” value in the data set with HeLa Kyoto [1] was -0.0489. Also, the values for the melting temperature in the data set on HeLa Kyoto [2] (cell cycle stage: G1/S) and with HeLa Kyoto [2] (cell cycle stage: mitosis) were 58.1 °C and 57 °C, respectively. Also, in the data set on HeLa Kyoto [3], the “solubility change mitosis (log2)” value is -0.0109. In addition, the thermal stability score in the data set on HeLa Kyoto [4] (setting [5]) is -2.19; in the data set on HeLa Kyoto [4] (cell cycle stage: mitosis) it was -2.92.
